Drawing on WO2019173771A1 (dated 2019), this text covers binding result and Kd for one molecule.

Assay [1] deals with T1, recombinant human CD147-Fc chimeric protein (R&D Systems, cat. no. 927-EMN-050), glycosylated (human, UniProt P35613-2 25-205, glycosylated (as supplied; migrated at about 62 kDa)).
T1 construct: Bought protein; also called glycosylated CD147-Fc fusion protein; glycosylated CD147 antigen; not shown: Fc part of the bought chimeric protein
T1 sequence (looked up): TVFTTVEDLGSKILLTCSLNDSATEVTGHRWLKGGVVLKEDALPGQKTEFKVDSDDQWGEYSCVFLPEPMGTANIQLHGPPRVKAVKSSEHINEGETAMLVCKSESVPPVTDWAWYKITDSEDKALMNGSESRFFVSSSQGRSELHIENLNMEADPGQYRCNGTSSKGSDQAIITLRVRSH
In words: ELISA, CD147-Fc adsorbed at 1 ug/mL. For orientation: An ELISA detects its analyte on a solid surface through an enzyme-linked reagent.

In assay [2] the target is T2, recombinant human CD147-Fc chimeric protein (R&D Systems, cat. no. 927-EMN-050), deglycosylated (human, UniProt P35613-2 25-205, deglycosylated of N- and simple O-linked carbohydrates (Protein Deglycosylation Mix II or Enzymatic Protein Deglycosylation Kit; migrated at 52 and 48 kDa)).
T2 construct: Same bought protein as m6 after enzymatic deglycosylation; also called deglycosylated CD147-Fc fusion protein; deglycosylated CD147 antigen; not shown: Fc part of the bought chimeric protein
T2 sequence (looked up): T1 sequence (looked up)
Put plainly: ELISA, deglycosylated CD147-Fc adsorbed at 1 ug/mL.

Assay [3] deals with T3, cynomolgus CD147 on the cynomolgus primary kidney epithelial cell line (cynomolgus monkey).
T3 construct: whole, on cells; also called cynomolgus monkey CD147
In words: FACS on the cynomolgus primary kidney epithelial cell line, Alexa Fluor 647 anti-human IgG.

In general, Kd refers to the equilibrium constant for the complex coming apart.

B1: humanized anti-human CD147 hu3A11 antibody (3A11 Lc1 / Hc1) (antibody, V domains shown)
VH: EVQLVESGGGLVQPGGSLRLSCAASGFTFSNYWMDWVRQAPGKGLEWVGEIRLKSYNYATHYAASVKGRFTISRDDSKNSVYLQMNSLKTEDTAVYYCTAAGTDYWGQGTLVTVSS
VL: DIQMTQSPSSLSASVGDRVTITCRASQSVRTDVGWYQQKPGKAPKLLIYYSSNRYTGVPSRFSGSGSGTDFTLTISSLQPEDFATYYCQQDYSSPYTFGQGTKLEIK
notes: also called hu 3A11 Lc1 / Hc1; huHc1 / huLc1
On to B1, for which the binding result in assay [1] and in assay [2] was “binds” throughout. Moreover, the Kd in assay [3] turned out to be 1.3 nM.
